Target: T1, MBP-RAD51AP1-His6 WT (UniProt Q96B01 1-352)
T1 sequence: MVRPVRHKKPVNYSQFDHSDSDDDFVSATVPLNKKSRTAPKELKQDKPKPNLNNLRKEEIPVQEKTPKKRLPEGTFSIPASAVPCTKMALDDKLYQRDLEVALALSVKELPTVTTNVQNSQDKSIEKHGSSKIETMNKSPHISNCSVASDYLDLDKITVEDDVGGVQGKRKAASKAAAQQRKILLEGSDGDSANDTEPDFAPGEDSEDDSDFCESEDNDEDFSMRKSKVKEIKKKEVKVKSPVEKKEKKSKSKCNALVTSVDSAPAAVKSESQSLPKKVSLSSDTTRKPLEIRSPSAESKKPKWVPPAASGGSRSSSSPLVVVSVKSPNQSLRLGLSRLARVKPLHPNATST
Assay: EMSA

B1: TERRA R-loop (mixed)
DNA 1: CATTGCATATTTAAAACATGTTGGATCTCAATTTCTATTTTATTTTTATTTTTTATTTCTTTATTTTACCATGAATTCAAATGACCTCTTATCAAGTGAC
DNA 2: GTCACTTGATAAGAGGTCATTTGAATTCATCCTAACCCTAACCCTAACCCTAACCCTAACCCTAACCCTAAGAGATCCAACATGTTTTAAATATGCAATG
RNA: UUAGGGUUAGGGUUAGGGUUAGGGUUAGGGUUAGGGUUAG
Does B1 bind?
Result: binds
